The values that follow come from IntAct's records for PubMed 9312003.

B1: ADP-ribosylation factor 6 (Homo sapiens), P62330 (parent)
chain: MGKVLSKIFGNKEMRILMLGLDAAGKTTILYKLKLGQSVTTIPTVGFNVETVTYKNVKFNVWDVGGQDKIRPLWRHYYTGTQGLIFVVDCADRDRIDEARQELHRIINDREMRDAIILIFANKQDLPDAMKPHEIQEKLGLTRIRDRNWYVQPSCATSGDGLYEGLTWLTSNYKS
partner: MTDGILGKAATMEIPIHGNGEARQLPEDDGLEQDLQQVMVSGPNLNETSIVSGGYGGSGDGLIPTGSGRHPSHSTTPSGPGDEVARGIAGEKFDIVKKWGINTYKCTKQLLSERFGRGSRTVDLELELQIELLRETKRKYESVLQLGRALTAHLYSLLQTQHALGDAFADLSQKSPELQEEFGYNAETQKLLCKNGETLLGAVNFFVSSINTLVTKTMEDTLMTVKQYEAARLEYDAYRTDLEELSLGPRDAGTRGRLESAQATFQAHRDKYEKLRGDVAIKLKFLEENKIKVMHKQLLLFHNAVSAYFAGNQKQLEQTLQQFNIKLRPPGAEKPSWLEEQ

The variants in the assay derive from B1. The settings on record: with arfp2_human ARFIP2, P53365.
With T28N, the “effect of a mutation on the interaction” value is reported as “decreasing interaction”.
